# Target: the molecule itself
# Test: cryo-EM structure
protein,measurement,value
E. coli MsbA (natural protein) MHNDKDLSTWQTFRRLWPTIAPFKAGLIVAGVALILNAASDTFMLSLLKPLLDDGFGKTDRSVLVWMPLVVIGLMILRGITSYVSSYCISWVSGKVVMTMRRRLFGHMMGMPVSFFDKQSTGTLLSRITYDSEQVASSSSGALITVVREGASIIGLFIMMFYYSWQLSIILIVLAPIVSIAIRVVSKRFRNISKNMQNTMGQVTTSAEQMLKGHKEVLIFGGQEVETKRFDKVSNRMRLQGMKMVSASSISDPIIQLIASLALAFVLYAASFPSVMDSLTAGTITVVFSSMIALMRPLKSLTNVNAQFQRGMAACQTLFTILDSEQEKDEGKRVIERATGDVEFRNVTFTYPGRDVPALRNINLKIPAGKTVALVGRSGSGKSTIASLITRFYDIDEGEILMDGHDLREYTLASLRNQVALVSQNVHLFNDTVANNIAYARTEQYSREQIEEAARMAYAMDFINKMDNGLDTVIGENGVLLSGGQRQRIAIARALLRDSPILILDEATSALDTESERAIQAALDELQKNRTSLVIAHRLSTIEKADEIVVVEDGVIVERGTHNDLLEHRGVYAQLHKMQFGQ,stoichiometry N,2

# From PMC5759761 (Nature, 2017)
